pKd: −log10 of the molar value.
Experiments:
[1] = target: Triosephosphate isomerase from G. gallus (G. gallus) (UniProt P00940); assay: NMR titration; 2.5 μM [U-15N]-TPI with 1 mM GAP, titrated with 0-30 μM ribosomes; integrated amide proton envelope (6.30-10.54 ppm) of 1H-15N HSQC; 10 mM sodium phosphate pH 7.5, 0.1 M NaCl, 290 K; apparent Kd from the total binding equation with a nonspecific term; the paper calls it an upper limit to Kd
[2] = target: Triosephosphate isomerase from G. gallus (G. gallus) (UniProt P00940); assay: NMR titration; 2.5 μM [U-15N]-TPI with 5 mM DHAP, titrated with 0-30 μM ribosomes; integrated amide proton envelope (6.30-10.54 ppm) of 1H-15N HSQC; 10 mM sodium phosphate pH 7.5, 0.1 M NaCl, 290 K; apparent Kd from the total binding equation with a nonspecific term; the paper calls it an upper limit to Kd

Chain of Triosephosphate isomerase from G. gallus (G. gallus) (P00940 whole entry): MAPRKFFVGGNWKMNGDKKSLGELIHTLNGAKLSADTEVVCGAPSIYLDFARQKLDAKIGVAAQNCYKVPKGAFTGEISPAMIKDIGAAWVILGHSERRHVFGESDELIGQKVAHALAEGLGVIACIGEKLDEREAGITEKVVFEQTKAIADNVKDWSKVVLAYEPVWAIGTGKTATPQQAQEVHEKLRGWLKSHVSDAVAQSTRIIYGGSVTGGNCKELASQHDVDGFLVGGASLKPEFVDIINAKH

Intact 70S ribosomes from E. coli MRE600 (from UniProt P0A7K2 1-121; P0A7R1 1-149; P0A7J3 1-165; P0A7J7 1-142; P02413 1-144; P0C018 1-117; P0A7L3 1-118; P61175 1-110; P0AG67 1-557; P02358 1-135; P0A7W7 1-130; P0A7R9 1-129) (complex)
pKd [1]: 5.92
pKd [2]: 5.98

— article PMC11284791
